Consider four molecules from PMC10527052, “X-ray Crystallographic Study of Preferred Spacing by the NF-κB p50 Homodimer on κB DNA” (Biomolecules, 2023).

Data set [1] addresses T1, NF-kB p50 RHR homodimer (mouse (murine), UniProt P25799 39-363). As to the kind of experiment: X-ray crystallography; 11-bp spacing, 2.80 A; Co-crystal structures only; crystallization conditions not in the material; protein stock in 25 mM Tris-HCl pH 7.4, 50 mM NaCl, 1 mM DTT. To be noted: protein: recombinant; chain copies: 2; blunt.
Data set [2] deals with the molecule itself. The data set is described as follows: crystal structure; p50 RHR homodimer co-crystallised with κB DNA (IL-6 17-mer, 2.80 Å; NGAL 10-mer, 2.80 Å; Test 16-mer, 3.0 Å); hanging or sitting drop vapor diffusion; one complex per asymmetric unit.
The target in data set [3] is T1, NF-kB p50 RHR homodimer. As to the kind of experiment: X-ray crystallography; 12-bp spacing, 2.80 A; 2:1 DNA:p50 dimer; second duplex almost unbound, contributes terminal G; Co-crystal structures only; crystallization conditions not in the material; protein stock in 25 mM Tris-HCl pH 7.4, 50 mM NaCl, 1 mM DTT. To be noted: protein: recombinant; chain copies: 2; blunt; 2 duplexes per p50 dimer, stacked end-to-end.

Data set [4] deals with T1, NF-kB p50 RHR homodimer. As to the kind of experiment: X-ray crystallography; 11-bp spacing, 3.0 A; Co-crystal structures only; crystallization conditions not in the material; protein stock in 25 mM Tris-HCl pH 7.4, 50 mM NaCl, 1 mM DTT. To be noted: protein: recombinant; chain copies: 2.

B1: IL-6 kB DNA 17-mer (dsDNA)
DNA 1: TGTGGGATTTTCCCATG
DNA 2: CATGGGAAAATCCCACA
Take B1: in the data set with NF-kB p50 RHR homodimer [1], the binding result is “binds”.

B2: murine NF-κB p50 subunit Rel homology region (amino acid residues 39–363) (domain or fragment, UniProt P25799 39-363, looked up)
chain: GPYLQILEQPKQRGFRFRYVCEGPSHGGLPGASSEKNKKSYPQVKICNYVGPAKVIVQLVTNGKNIHLHAHSLVGKHCEDGVCTVTAGPKDMVVGFANLGILHVTKKKVFETLEARMTEACIRGYNPGLLVHSDLAYLQAEGGGDRQLTDREKEIIRQAAVQQTKEMDLSVVRLMFTAFLPDSTGSFTRRLEPVVSDAIYDSKAPNASNLKIVRMDRTAGCVTGGEEIYLLCDKVQKDDIQIRFYEEEENGGVWEGFGDFSPTDVHRQFAIVFKTPKYKDVNITKPASVFVQLRRKSDLETSEPKPFLYYPEIKDKEEVQRKRQK
notes: 351-363 disordered in the crystals; murine amino acid numbering; also called p50 RHR; NF-κB p50 homodimer; source: E. coli BL21 (DE3), pET11a, purified (SP Sepharose, Superdex 75 size exclusion)
The stoichiometry N is a count of units in the complex or per binding partner. In the case of B2, in data set [2], the “stoichiometry N” value was found to be 2.

B3: NGAL kB DNA 10-mer (dsDNA)
DNA 1: GGGAATGTCC
DNA 2: GGACATTCCC
Take B3: the binding result with NF-kB p50 RHR homodimer [3] is “binds”.

B4: Test kB-like DNA 16-mer (dsDNA)
DNA 1: TCAGGGGAATTCCCCTC
DNA 2: AGAGGGGAATTCCCCTG
With B4, the binding result with NF-kB p50 RHR homodimer [4] is “binds”.
